Earlier results as cited in PMC3312455.
Several values for one entry are separate records, joined by “and”; a condition that tells them apart may be missing. Equal entries are not always repeated.

Tests used:
Test in all cases: SPR
[1] = biological target: FGFR2-IIIb ECD (Homo sapiens) (UniProt P21802)
[2] = biological target: FGFR3-IIIc D1-D3 (Homo sapiens) (UniProt P22607)
[3] = biological target: αvβ3 integrin receptor (Homo sapiens) (UniProt P06756)
[4] = biological target: FGFR3-IIIc D2-D3 (Homo sapiens) (UniProt P22607)
[5] = biological target: FGFR2-IIIb D2-D3 (Homo sapiens) (UniProt P21802)
[6] = biological target: FGFR1-IIIc ECD (Homo sapiens) (UniProt P11362)
agrin = agrin (UniProt O00468)
[7] = biological target: FGFR1-IIIc D2-D3 (Homo sapiens) (UniProt P11362)
Sequence of FGFR1-IIIc D2-D3 (Homo sapiens) (P11362 142-365): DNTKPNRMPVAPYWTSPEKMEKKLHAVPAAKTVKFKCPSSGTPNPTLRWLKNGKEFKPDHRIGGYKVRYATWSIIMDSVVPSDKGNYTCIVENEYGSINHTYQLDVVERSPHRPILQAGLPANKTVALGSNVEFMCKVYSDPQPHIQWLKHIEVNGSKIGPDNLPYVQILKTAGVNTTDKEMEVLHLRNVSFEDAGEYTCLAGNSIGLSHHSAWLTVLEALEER

[8] = biological target: FGFR1-IIIc D1-D3 (Homo sapiens) (UniProt P11362)
c-MET ECD (Homo sapiens) = c-MET ECD (Homo sapiens) (UniProt P08581)
Sequence of c-MET ECD (Homo sapiens) (P08581 25-932): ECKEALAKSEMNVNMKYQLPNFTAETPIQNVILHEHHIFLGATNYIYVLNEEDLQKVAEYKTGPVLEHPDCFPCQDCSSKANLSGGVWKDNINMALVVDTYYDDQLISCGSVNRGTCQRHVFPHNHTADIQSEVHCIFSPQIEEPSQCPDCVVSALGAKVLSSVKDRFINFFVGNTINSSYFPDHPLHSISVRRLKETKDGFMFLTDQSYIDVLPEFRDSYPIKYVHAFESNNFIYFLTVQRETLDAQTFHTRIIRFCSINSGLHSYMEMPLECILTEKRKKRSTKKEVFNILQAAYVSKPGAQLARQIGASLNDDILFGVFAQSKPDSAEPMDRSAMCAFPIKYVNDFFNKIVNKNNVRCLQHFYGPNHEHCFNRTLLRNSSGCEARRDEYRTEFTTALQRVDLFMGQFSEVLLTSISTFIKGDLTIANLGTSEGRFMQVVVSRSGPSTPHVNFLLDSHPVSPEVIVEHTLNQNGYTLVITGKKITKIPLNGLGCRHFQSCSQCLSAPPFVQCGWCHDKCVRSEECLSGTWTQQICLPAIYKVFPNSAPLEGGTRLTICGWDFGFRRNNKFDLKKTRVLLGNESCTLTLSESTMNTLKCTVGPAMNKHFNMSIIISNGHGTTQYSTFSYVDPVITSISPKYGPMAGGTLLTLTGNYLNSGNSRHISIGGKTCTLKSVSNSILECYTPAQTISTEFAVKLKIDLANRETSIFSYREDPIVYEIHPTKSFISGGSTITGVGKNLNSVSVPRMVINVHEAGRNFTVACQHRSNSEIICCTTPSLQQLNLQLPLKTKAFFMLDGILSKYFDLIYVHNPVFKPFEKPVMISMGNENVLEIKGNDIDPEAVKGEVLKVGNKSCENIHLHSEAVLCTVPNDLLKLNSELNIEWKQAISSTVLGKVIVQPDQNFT

[9] = biological target: PDGFRβ ECD (Homo sapiens) (UniProt P09619)
[10] = biological target: PDGFRα ECD (Homo sapiens) (UniProt P16234)
[11] = biological target: Neuropilin-1 ECD (Homo sapiens) (UniProt O14786)
[12] = biological target: VEGFR1/Flt ECD (Homo sapiens) (UniProt P17948)
Sequence of VEGFR1/Flt ECD (Homo sapiens) (P17948 27-758): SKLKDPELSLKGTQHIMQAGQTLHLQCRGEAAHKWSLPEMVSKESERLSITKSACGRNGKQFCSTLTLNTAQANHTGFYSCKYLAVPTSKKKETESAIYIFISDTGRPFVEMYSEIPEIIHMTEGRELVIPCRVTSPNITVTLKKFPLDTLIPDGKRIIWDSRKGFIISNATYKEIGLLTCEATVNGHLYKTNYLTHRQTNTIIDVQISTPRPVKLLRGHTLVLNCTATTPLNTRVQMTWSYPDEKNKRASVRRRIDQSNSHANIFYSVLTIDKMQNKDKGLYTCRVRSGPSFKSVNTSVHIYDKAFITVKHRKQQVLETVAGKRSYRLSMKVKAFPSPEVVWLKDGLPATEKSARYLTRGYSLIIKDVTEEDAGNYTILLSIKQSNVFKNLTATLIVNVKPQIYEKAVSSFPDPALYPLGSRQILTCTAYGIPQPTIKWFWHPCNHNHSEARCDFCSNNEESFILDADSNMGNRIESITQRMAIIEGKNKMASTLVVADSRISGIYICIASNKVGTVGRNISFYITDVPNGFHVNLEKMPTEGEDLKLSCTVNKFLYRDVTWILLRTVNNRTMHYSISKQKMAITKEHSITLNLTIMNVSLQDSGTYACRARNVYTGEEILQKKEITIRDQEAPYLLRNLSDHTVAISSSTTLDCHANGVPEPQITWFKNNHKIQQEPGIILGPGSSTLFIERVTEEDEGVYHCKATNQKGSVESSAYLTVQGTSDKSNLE

Sequence of VEGF-A165 (P15692 whole entry): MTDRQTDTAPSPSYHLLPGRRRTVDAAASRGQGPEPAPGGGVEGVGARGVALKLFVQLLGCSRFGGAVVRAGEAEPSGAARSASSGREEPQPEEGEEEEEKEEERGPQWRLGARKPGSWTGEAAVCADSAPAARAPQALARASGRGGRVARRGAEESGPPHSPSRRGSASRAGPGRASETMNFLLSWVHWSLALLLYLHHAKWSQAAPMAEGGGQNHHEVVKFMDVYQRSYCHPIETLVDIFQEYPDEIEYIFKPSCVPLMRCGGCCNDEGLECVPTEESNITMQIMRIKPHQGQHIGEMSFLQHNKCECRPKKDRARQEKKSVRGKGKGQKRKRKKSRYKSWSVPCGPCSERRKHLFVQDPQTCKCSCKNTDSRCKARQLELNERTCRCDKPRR
Sequence of FGF2 (P09038 143-288): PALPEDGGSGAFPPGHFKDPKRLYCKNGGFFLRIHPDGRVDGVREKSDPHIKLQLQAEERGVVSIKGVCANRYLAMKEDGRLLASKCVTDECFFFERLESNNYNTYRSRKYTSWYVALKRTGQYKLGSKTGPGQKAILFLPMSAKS
Sequence of FGF1 (P05230 16-155): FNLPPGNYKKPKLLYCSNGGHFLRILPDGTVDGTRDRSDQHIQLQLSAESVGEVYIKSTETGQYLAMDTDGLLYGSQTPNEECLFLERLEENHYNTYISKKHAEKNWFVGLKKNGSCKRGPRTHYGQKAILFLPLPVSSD
Sequence of FGFR2-IIIb ECD (Homo sapiens) (P21802 22-377): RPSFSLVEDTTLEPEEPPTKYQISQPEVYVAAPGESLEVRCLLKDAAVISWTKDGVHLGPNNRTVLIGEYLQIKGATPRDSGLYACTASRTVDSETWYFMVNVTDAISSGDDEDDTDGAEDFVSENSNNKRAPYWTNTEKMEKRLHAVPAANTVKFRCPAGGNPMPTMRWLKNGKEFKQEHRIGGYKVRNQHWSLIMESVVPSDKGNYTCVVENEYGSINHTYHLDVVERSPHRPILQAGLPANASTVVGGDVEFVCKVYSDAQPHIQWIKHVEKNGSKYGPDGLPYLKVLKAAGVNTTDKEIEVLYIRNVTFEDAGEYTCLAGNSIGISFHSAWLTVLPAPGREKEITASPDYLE
Sequence of αvβ3 integrin receptor (Homo sapiens) (P06756 31-1048, chain 1 of 2): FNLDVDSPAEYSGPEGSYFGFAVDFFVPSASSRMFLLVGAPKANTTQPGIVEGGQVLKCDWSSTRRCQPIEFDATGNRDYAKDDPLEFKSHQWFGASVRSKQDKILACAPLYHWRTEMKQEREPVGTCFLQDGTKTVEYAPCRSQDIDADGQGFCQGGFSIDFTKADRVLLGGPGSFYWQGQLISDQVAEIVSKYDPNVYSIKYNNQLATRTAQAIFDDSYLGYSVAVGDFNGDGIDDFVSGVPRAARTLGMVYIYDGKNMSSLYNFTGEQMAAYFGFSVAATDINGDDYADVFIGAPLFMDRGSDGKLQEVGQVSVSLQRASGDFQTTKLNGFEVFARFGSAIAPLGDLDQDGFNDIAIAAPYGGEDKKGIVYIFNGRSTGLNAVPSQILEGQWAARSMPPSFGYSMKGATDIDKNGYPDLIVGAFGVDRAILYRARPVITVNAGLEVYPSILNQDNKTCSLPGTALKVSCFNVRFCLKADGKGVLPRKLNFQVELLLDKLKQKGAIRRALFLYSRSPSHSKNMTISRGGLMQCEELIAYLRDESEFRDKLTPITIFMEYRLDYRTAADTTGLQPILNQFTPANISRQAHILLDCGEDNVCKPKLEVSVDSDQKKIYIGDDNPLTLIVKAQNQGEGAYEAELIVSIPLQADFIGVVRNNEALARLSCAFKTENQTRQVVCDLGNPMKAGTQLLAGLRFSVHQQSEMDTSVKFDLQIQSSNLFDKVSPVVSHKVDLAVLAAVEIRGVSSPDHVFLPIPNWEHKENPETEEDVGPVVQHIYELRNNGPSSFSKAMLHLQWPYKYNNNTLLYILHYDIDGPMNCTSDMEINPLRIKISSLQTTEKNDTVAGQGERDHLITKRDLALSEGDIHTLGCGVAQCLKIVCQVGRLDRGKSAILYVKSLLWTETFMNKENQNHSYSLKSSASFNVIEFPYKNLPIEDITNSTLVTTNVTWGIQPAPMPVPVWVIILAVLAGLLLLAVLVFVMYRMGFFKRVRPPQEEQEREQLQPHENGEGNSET
Sequence of αvβ3 integrin receptor (Homo sapiens) (P05106 27-788, chain 2 of 2, further chain): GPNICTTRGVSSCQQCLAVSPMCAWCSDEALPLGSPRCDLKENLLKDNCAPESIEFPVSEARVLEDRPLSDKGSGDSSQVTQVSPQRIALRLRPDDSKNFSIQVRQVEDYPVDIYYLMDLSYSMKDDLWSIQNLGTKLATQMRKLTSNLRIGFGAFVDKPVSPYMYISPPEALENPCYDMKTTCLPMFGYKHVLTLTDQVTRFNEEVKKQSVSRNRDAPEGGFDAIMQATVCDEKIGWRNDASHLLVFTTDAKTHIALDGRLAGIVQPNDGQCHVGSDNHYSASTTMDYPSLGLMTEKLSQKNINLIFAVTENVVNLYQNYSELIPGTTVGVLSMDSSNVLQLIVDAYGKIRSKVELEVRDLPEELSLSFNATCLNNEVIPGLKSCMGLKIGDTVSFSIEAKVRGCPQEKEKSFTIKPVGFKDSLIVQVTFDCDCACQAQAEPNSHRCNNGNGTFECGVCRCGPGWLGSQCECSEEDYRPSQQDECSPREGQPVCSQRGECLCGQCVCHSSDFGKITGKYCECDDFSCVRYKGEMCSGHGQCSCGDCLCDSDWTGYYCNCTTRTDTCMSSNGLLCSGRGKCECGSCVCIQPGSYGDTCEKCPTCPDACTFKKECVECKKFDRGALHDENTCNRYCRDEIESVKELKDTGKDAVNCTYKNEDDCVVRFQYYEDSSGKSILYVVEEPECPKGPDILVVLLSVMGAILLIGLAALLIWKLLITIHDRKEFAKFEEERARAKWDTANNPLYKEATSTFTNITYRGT
Sequence of FGF4 (P08620 31-206): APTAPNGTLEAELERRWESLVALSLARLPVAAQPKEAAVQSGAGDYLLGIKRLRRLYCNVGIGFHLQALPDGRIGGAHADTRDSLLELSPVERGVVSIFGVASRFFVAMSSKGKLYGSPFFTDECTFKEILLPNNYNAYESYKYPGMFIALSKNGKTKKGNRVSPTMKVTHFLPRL
Sequence of HIV-Tat (P04326 whole entry): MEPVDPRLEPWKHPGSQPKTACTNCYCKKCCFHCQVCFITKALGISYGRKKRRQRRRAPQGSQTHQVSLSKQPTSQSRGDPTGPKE

**Q.** For FGF1 (from UniProt P05230), which Kd [1] is on record?
**A.** 0.8 nM

**Q.** And the Kd [2]?
**A.** 916 nM

**Q.** And the Kd [3]?
**A.** 1100 nM

**Q.** What about the Kd [4] of the same substance?
**A.** 230 nM

**Q.** And the Kd [5]?
**A.** 59.6 nM

**Q.** What about the Kd [6] of the same substance?
**A.** 35 nM

**Q.** Which Kd [1] does the source give for FGF2 (from UniProt P09038) here?
**A.** 0.5 nM

**Q.** What about the Kd (agrin) of the same substance?
**A.** 2.5 nM

**Q.** What about the Kd [7] of the same substance?
**A.** 62 nM

**Q.** What about the Kd [8] of the same substance?
**A.** 99 nM

**Q.** Which Kd [1] does the source give for FGF4 (from UniProt P08620) here?
**A.** 0.42 nM

**Q.** What about the Kd [7] of the same substance?
**A.** 165 nM

**Q.** Which Kd (c-MET ECD (Homo sapiens)) does the source give for HGF (from UniProt P14210) here?
**A.** 50 nM and 90 nM

**Q.** For HIV-Tat (from UniProt P04326), which Kd [3] is on record?
**A.** 32 nM

**Q.** For PDGF-AA (from UniProt P04085), which Kd [9] is on record?
**A.** 453 nM

**Q.** What about the Kd [10] of the same substance?
**A.** 13.4 nM

**Q.** With PDGF-BB (from UniProt P01127) as the substance, how does the Kd [10] read?
**A.** 150 nM

**Q.** Which Kd [11] does the source give for VEGF-A165 (from UniProt P15692) here?
**A.** 2000 nM

**Q.** And the Kd [12]?
**A.** 0.007 nM and 0.03 nM
